Experiment [1] addresses α-Synuclein A53T, unlabelled (human) (UniProt P37840). As to the kind of experiment: ELISA.
The target of experiment [2] is α-Synuclein WT, unlabelled (human) (UniProt P37840). As to the kind of experiment: ELISA. For orientation: In an ELISA, binding on a coated surface is turned into a signal by an enzyme label.

As to “α-Synuclein A53T, unlabelled (from UniProt P37840 1-140) (natural protein)”, in experiment [1], the intracellular α-Syn oligomer concentration after 3 days was determined as 16.3 nM.

In experiment [2], “α-Synuclein WT, unlabelled (from UniProt P37840 1-140) (natural protein)” had an intracellular α-Syn oligomer concentration after 1 day of 12.3 nM and an intracellular α-Syn oligomer concentration after 3 days of 13.1 nM.

The values are drawn from publication doi:10.1101/2022.06.07.494932.
